# Columns and labels:
# [1] = test system: PEG-PPQ5 fluorogenic nanosensor (PPQ5 peptide on PEG-8 40 kDa scaffold)
# [2] = test system: ELA-Q
# [3] = test system: LAS-Q
Substance,in vitro cleavage (fluorescent dequenching) [1],reversal of FRET-quenched fluorescent signal (cleavage) [2],reversal of FRET-quenched fluorescent signal (cleavage) [3]
recombinant human MMP13,PEG-PPQ5 pre- and post-aerosolization was equally sensitive to in vitro cleavage by recombinant MMP13,–,–
recombinant mouse MMP1,–,"Both substrates resist cleavage by MMPI, MMP13, and thrombin","Both substrates resist cleavage by MMPI, MMP13, and thrombin"
recombinant mouse MMP13,–,"Both substrates resist cleavage by MMPI, MMP13, and thrombin","Both substrates resist cleavage by MMPI, MMP13, and thrombin"
recombinant mouse thrombin,–,"Both substrates resist cleavage by MMPI, MMP13, and thrombin","Both substrates resist cleavage by MMPI, MMP13, and thrombin"

# From patent publication US20200096514
